Measurements published in article PMC10763564, “BrainBike peptidomimetic enables efficient transport of proteins across brain endothelium†” (RSC Chemical Biology, 2023).
Starred links: 1 amine or outer side, 2 acyl side, 3 side chain; linkers in the order of their positions; H or OH if unused. Positions of bridges follow the written chain, without caps; N, C: chain ends. No end group written: not given here. TBMB = c1c(C[*:1])cc(C[*:3])cc1C[*:2]

Experiments:
[1] = target: T1, Transferrin Receptor 1 on HeLa cells (TfR1+) (human (endogenous in HeLa), UniProt P02786 1-760); assay: flow cytometry on cells; sCy5-labelled peptides on HeLa cells (TfR1+, endogenous receptor); details: one partner purified
T1 construct: Transferrin Receptor 1 (TfR1), endogenous on HeLa cells; source: endogenous, on HeLa cells

[2] = target: T2, TfR1 fused to a green fluorescent protein, on transfected HeLa cells (TfR1+++) (UniProt P02786 1-760); assay: flow cytometry on cells; sCy5-labelled peptide on HeLa cells transfected with GFP-TfR1 (TfR1+++), cells with higher levels of the receptor analysed; details: one partner purified
T2 construct: Transferrin Receptor 1 (TfR1) encoded by a plasmid as a fusion with GFP; The transfected HeLa cells carry the endogenous TfR1 as well; also called GFP-TfR1; source: HeLa, transfected, on cells
T2 sequence (P02786 whole entry, the tested form may be a part): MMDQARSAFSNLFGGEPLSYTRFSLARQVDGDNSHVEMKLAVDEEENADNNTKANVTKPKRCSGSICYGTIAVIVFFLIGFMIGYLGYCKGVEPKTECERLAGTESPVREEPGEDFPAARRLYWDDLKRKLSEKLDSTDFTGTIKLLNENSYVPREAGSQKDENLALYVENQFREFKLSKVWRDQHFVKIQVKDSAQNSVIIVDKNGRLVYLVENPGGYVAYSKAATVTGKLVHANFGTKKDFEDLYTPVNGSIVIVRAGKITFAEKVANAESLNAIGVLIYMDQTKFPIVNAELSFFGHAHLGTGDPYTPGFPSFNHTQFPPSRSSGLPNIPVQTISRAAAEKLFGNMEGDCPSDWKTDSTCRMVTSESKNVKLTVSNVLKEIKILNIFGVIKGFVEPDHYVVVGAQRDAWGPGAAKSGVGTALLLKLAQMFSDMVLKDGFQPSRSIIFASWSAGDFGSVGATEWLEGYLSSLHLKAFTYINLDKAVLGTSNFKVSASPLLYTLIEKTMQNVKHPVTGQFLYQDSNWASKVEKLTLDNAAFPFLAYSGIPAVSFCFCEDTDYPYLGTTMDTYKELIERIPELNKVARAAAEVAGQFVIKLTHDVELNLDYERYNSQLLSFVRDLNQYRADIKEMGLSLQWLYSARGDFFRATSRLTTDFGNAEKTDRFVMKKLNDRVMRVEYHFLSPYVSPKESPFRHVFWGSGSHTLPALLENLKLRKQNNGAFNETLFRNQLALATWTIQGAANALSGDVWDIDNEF

T1 sequence (P02786 whole entry): as the sequence (P02786 whole entry, the tested form may be a part) above

- Kd [1]: ~40 nM
- fold cell association against the parent peptide Y1 [1]: 7 fold
- fold binding against the same cells without overexpressing the receptor [2]: ~40 fold
Binder: {sulfo‑Cyanine5}-GSGCVHWDCRQWC (linker 4-9-13 via TBMB) [BrainBike-4 labelled with sulfo-Cyanine5]
